# From patent US8003599
# Biological target: human L1 adhesion molecule (L1-CAM), wild type, on cells
# Sequence (chain, as listed by the source): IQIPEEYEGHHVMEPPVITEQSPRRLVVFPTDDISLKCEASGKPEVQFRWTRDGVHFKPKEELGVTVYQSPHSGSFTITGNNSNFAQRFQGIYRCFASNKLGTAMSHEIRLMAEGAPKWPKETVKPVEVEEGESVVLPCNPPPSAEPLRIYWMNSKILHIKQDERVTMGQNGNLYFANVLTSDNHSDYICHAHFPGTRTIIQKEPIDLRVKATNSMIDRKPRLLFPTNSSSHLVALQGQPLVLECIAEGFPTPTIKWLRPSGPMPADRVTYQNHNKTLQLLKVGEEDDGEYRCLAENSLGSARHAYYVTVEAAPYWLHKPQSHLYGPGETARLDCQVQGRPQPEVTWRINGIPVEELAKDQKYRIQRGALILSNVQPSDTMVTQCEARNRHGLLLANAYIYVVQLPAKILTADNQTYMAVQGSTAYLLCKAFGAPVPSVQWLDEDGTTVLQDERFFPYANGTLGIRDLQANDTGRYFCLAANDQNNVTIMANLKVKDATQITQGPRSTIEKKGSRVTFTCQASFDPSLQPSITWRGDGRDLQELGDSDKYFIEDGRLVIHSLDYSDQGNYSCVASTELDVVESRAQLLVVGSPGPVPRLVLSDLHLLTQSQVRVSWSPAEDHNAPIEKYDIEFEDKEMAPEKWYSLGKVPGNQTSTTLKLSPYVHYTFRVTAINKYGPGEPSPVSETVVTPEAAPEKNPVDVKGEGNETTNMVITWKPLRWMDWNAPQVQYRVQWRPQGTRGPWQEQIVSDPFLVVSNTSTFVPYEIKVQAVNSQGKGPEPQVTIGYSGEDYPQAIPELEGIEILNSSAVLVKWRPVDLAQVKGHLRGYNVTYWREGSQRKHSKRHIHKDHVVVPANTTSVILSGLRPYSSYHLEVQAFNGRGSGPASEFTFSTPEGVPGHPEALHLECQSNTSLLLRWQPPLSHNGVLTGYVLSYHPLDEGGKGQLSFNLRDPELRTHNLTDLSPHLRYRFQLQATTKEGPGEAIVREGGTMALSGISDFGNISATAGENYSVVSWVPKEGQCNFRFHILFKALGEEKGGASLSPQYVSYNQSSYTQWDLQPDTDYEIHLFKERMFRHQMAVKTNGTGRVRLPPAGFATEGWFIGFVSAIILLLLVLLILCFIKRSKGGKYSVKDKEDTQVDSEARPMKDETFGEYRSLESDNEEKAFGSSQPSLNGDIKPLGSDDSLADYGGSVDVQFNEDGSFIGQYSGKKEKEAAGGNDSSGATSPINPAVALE
protein,measurement,value
human ADAM10 (membrane-bound metalloproteinase) (protein) TTSAEKNTCQLYIQTDHLFFKYYGTREAVIAQISSHVKAIDTIYQTTDFSGIRNISFMVKRIRINTTADEKDPTNPFRFPNIGVEKFLELNSEQNHDDYCLAYVFTDRDFDDGVLGLAWVGAPSGSSGGICEKSKLYSDGKKKSLNTGIITVQNYGSHVPPKVSHITFAHEVGHNFGSPHDSGTECTPGESKNLGQKENGNYIMYARATSGDKLNNNKFSLCSIRNISQVLEKKRNNCFVESGQPICGNGMVEQGEECDCGYSDQCKDECCFDANQPEGRKCKLKPGKQCSPSQGPCCTAQCAFKSKSEKCRDDSDCAREGICNGFTALCPASDPKPNFTDCNRHTQVCINGQCAGSICEKYGLEECTCASSDGKDDKELCHVCCMKKMDPSTCASTGSVQWSRHFSGRTITLQPGSPCNDFRGYCDVFMRCRLVDADGPLARLKKAIFSPELYENIAEWIVAHWWAVLLMGIALIMLMAGFIKICSVHTPSSNPKLPPPKPLPGTLKRRRPPQPIQQPQRQRPRESYQMGHMRR,L1 cleavage,L1 cleavage required the membrane-bound metalloproteinase ADAM10
